The values that follow come from US8491890.

The target of this assay is Fas (CD95, APO-1) on mouse microglia (mouse) (UniProt P25446). Briefly: cell-based or functional assay.
Chain of UniProt P25446 (P25446 22-327): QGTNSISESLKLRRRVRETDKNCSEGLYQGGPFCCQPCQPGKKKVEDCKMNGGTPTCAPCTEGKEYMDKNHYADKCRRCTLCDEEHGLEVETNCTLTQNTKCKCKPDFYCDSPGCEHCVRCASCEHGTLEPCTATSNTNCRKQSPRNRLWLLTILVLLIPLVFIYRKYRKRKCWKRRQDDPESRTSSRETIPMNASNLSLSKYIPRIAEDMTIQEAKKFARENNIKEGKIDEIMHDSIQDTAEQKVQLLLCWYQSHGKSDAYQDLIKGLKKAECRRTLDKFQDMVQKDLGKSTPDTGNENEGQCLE

“Fas ligand (FasL) on mouse Treg and Teff (from UniProt P41047 1-279)” had a decrease of CB expression in Teff-treated cultures on blocking of FasL interactions (flow cytometry) of 4.8% and a decrease of CB protein expression in Treg-treated microglia on neutralization of FasL (flow cytometry) of 40.2%.
